± gives the uncertainty stated by the source.
Experiment: self-splicing fitness, log relative to wild type (ln ratio); higher = more splicing; Tetrahymena group I intron in knt gene, E. coli kanamycin selection, DiMSum; sequences stand for … in CUCUCU…GGAGGGAAAAGUUAUCAGGCAUGCACCUGGUAGCUAGUCUUUAAACCAAUAGAUUGCAUCGGUUUAAAAGGCAAGACCGUCAAAUUGCGGGAAAGGGGUCAACAGCCGUUCAGUACCAAGUCUCAGGGGAAACUUUGAGAUGGCCUUGCAAAGGGUAUGGUAAUAAGCUGACGGACAUGGUCCUAACCACGCAGCCAAGUCCUAAGUCAACAGAUCUUCUGUUGAUAUGGAUGCAGUUCACAGACUAAAUGUCGGUCGGGGAAGAUGUAUUCUUCUCAUAAGAUAUAGUCGGACCUCUCCUUAAUGGGAGCUAGCGGAUGAAGUGAUGCAACACUGGAGCCGCUGGGAACUAAUUUGUAUGCGAAAGUAUAUUGAUUAGUUUUGGAGUACUCGUGGUCG
How it was run: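 Fitness was computed with DiMSum as the error-weighted combination of replicate fold changes, kanamycin versus none, each normalised to wild type. The library randomised all eight intron nucleotides of the P1ex region, with the intron placed in the knt kanamycin-resistance gene on pET-22b(+) in E. coli BL21(DE3). Six replicate transformations were grown overnight at 37°C or 30°C on LB agar with or without 25 μg/mL kanamycin, plus 100 μg/mL carbenicillin, 50 μM IPTG and 0.2% rhamnose. Pooled colonies were amplicon-sequenced on an Illumina HiSeq 2500.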

| Sequence | self-splicing fitness (ln) (30 °C) | self-splicing fitness (ln) (37 °C) |
| --- | --- | --- |
| GUAAAGCAAUAUUACGCACU | 0.0854 ± 0.099 | -0.289 ± 0.12 |
| UGGCAGCAAUAUUACGACUU | 0.0485 ± 0.093 | 0.468 ± 0.1 |
| UGCGAGCAAUAUUACGAAGU | -3.37 ± 0.3 | -0.334 ± 0.29 |
| AUCCAGCAAUAUUACGUCAU | -0.725 ± 0.041 | -0.313 ± 0.057 |
| AAGGAGCAAUAUUACGCGAA | -1.94 ± 0.22 | -1.39 ± 0.23 |
| GGGUAGCAAUAUUACGAAAU | -1.8 ± 0.11 | -0.914 ± 0.11 |
| CCUCAGCAAUAUUACGAGCU | -4.22 ± 0.37 | -1.9 ± 0.23 |
| AAUGAGCAAUAUUACGAACG | -2.46 ± 0.31 | -1.74 ± 0.3 |
| GAAGAGCAAUAUUACGUGUA | -2.66 ± 0.2 | -2.76 ± 0.19 |
| GUGCAGCAAUAUUACGCAGA | -2.57 ± 0.46 | -1.53 ± 0.23 |
| UCUAAGCAAUAUUACGGUGG | -1.18 ± 0.082 | -0.0857 ± 0.13 |
| CUCGAGCAAUAUUACGUAGG | -1.11 ± 0.11 | -0.804 ± 0.15 |
| AACUAGCAAUAUUACGCAAG | -3.14 ± 0.14 | -1.77 ± 0.15 |
| CCGGAGCAAUAUUACGGUCG | -1.22 ± 0.097 | -0.072 ± 0.13 |
| CUAUAGCAAUAUUACGUGUC | -4.02 ± 0.24 | -3.09 ± 0.27 |
| CAUUAGCAAUAUUACGCACU | -1.26 ± 0.1 | -0.806 ± 0.13 |
| CACCAGCAAUAUUACGUUAC | -4.48 ± 0.26 | -2.45 ± 0.18 |
| UAUGAGCAAUAUUACGAGAG | -2.42 ± 0.43 | -2.72 ± 0.38 |
| AUCAAGCAAUAUUACGGAUU | -3.31 ± 0.17 | -1.2 ± 0.14 |
| ACAUAGCAAUAUUACGGAGC |  | -0.767 ± 0.15 |
| GUGUAGCAAUAUUACGGCGA | -1.18 ± 0.089 | -0.268 ± 0.098 |
| AUAGAGCAAUAUUACGCAAG | -2.97 ± 0.2 | -1.24 ± 0.22 |
| AUGCAGCAAUAUUACGUACG | -2.15 ± 0.1 | -0.573 ± 0.12 |
| CCCGAGCAAUAUUACGAGAG | -3.25 ± 0.2 | -2.15 ± 0.36 |

| Sequence | self-splicing fitness (ln) (30 °C) | self-splicing fitness (ln) (37 °C) |
| --- | --- | --- |
| CGCUAGCAAUAUUACGGAUU | -3 ± 0.23 | -1.52 ± 0.2 |
| GCACAGCAAUAUUACGGGGA | -2.29 ± 0.11 | -1.5 ± 0.1 |
| GUCCAGCAAUAUUACGUUAG | -3.15 ± 0.11 | -1.19 ± 0.095 |
| GCGUAGCAAUAUUACGGCCG | -1.01 ± 0.16 | 0.509 ± 0.34 |
| CCGGAGCAAUAUUACGGGUC | -3.5 ± 0.27 | -2.77 ± 0.35 |
| GAUUAGCAAUAUUACGAAAG | -2.38 ± 0.25 | -0.574 ± 0.23 |
| UUUCAGCAAUAUUACGUGUG | -0.986 ± 0.067 | -0.142 ± 0.075 |
| GUUGAGCAAUAUUACGUUCA | -2.3 ± 0.5 | -1.52 ± 0.25 |
| CGAAAGCAAUAUUACGAUAC | -1.99 ± 0.18 | -2.11 ± 0.38 |
| GGUCAGCAAUAUUACGUGAU | -3.88 ± 0.22 | -2.14 ± 0.11 |
| CAGCAGCAAUAUUACGUGAC | -3.41 ± 0.24 | -1.86 ± 0.19 |
| UAUUAGCAAUAUUACGCAUU | -2.09 ± 0.15 | -1.48 ± 0.17 |
| CUACAGCAAUAUUACGGGGU | -3.62 ± 0.12 | -2.34 ± 0.14 |
| CUGGAGCAAUAUUACGUUCG | -4.29 ± 0.3 | -1.77 ± 0.19 |
| GAAGAGCAAUAUUACGAGAU | -3.35 ± 0.23 | -2.08 ± 0.19 |
| GUUCAGCAAUAUUACGACGC | 0.0985 ± 0.12 | 0.651 ± 0.23 |
| UGAAAGCAAUAUUACGACUG | 0.192 ± 0.1 | 0.249 ± 0.12 |
| AUUGAGCAAUAUUACGUCGA | -3.47 ± 0.31 | -1.18 ± 0.25 |
| AGGGAGCAAUAUUACGUUGU | -3.01 ± 0.18 | -2.9 ± 0.2 |
| AAUGAGCAAUAUUACGGGAC | -2.96 ± 0.26 | -1.36 ± 0.25 |
| UUGUAGCAAUAUUACGUUUA | -1.36 ± 0.16 | -1.15 ± 0.17 |
| AAAGAGCAAUAUUACGUUUG | -2.74 ± 0.21 | -1.77 ± 0.22 |
| UAAAAGCAAUAUUACGCGUA | -1.12 ± 0.11 | -0.0821 ± 0.096 |

Reference: the supplement of paper PMC7877785
